These results are taken from US20110045008A1 (NEW YORK UNIVERSITY, published 2011).

The labels stand for the following.
T1: C-terminal truncated 35S-ADAMTS-18 (AD-CTD) (Homo sapiens (Human), UniProt Q8TE60 48-1064, 35S methionine)
T1 construct: also called C-terminal deficient ADAMTS-18
T1 sequence: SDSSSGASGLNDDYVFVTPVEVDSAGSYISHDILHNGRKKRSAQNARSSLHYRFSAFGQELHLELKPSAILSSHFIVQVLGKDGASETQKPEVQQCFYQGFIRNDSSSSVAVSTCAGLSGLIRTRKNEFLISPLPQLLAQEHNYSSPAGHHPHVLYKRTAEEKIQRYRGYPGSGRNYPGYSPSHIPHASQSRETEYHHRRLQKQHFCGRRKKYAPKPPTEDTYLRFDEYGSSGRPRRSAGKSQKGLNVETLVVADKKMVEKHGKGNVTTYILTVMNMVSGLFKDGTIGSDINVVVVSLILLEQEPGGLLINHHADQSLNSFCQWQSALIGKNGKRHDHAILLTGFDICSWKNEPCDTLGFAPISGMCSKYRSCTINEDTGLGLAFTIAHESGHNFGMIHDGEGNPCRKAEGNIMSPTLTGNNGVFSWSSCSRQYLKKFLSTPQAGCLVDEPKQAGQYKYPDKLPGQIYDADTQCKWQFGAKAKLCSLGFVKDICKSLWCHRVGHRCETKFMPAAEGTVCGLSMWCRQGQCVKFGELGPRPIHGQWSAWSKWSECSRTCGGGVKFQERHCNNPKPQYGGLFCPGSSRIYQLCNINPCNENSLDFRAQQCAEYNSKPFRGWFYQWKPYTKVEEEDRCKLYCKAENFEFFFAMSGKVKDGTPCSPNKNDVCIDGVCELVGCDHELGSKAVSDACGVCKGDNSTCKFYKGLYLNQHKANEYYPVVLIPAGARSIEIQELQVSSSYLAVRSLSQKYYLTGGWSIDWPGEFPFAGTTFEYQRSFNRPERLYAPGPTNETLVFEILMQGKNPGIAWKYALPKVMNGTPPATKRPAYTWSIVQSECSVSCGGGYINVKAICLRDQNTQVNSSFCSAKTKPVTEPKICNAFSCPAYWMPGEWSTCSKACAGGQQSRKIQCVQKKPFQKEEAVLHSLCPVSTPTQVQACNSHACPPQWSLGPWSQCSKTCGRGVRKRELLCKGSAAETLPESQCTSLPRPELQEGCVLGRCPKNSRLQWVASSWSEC

B1: platelet GPIIIa (integrin beta3) on platelets (receptor, human, UniProt P05106 27-788, looked up)
chain: GPNICTTRGVSSCQQCLAVSPMCAWCSDEALPLGSPRCDLKENLLKDNCAPESIEFPVSEARVLEDRPLSDKGSGDSSQVTQVSPQRIALRLRPDDSKNFSIQVRQVEDYPVDIYYLMDLSYSMKDDLWSIQNLGTKLATQMRKLTSNLRIGFGAFVDKPVSPYMYISPPEALENPCYDMKTTCLPMFGYKHVLTLTDQVTRFNEEVKKQSVSRNRDAPEGGFDAIMQATVCDEKIGWRNDASHLLVFTTDAKTHIALDGRLAGIVQPNDGQCHVGSDNHYSASTTMDYPSLGLMTEKLSQKNINLIFAVTENVVNLYQNYSELIPGTTVGVLSMDSSNVLQLIVDAYGKIRSKVELEVRDLPEELSLSFNATCLNNEVIPGLKSCMGLKIGDTVSFSIEAKVRGCPQEKEKSFTIKPVGFKDSLIVQVTFDCDCACQAQAEPNSHRCNNGNGTFECGVCRCGPGWLGSQCECSEEDYRPSQQDECSPREGQPVCSQRGECLCGQCVCHSSDFGKITGKYCECDDFSCVRYKGEMCSGHGQCSCGDCLCDSDWTGYYCNCTTRTDTCMSSNGLLCSGRGKCECGSCVCIQPGSYGDTCEKCPTCPDACTFKKECVECKKFDRGALHDENTCNRYCRDEIESVKELKDTGKDAVNCTYKNEDDCVVRFQYYEDSSGKSILYVVEEPECPKGPDILVVLLSVMGAILLIGLAALLIWKLLITIHDRKEFAKFEEERARAKWDTANNPLYKEATSTFTNITYRGT
notes: whole, on cells; On platelets GPIIIa stands in the GPIIb-IIIa complex; also called platelet GPIIIa(49-66); platelet integrin GPIIIa
B2: ADAMTS-18 C-terminal 385 amino acid fragment (AD-18F) (ligand)
chain: NETLVFEILMQGKNPGIAWKYALPKVMNGTPPATKRPAYTWSIVQSECSVSCGGGYINVKAICLRDQNTQVNSSFCSAKTKPVTEPKICNAFSCPAYWMPGEWSTCSKACAGGQQSRKIQCVQKKPFQKEEAVLHSLCPVSTPTQVQACNSHACPPQWSLGPWSQCSKTCGRGVRKRELLCKGSAAETLPESQCTSLPRPELQEGCVLGRCPKNSRLQWVASSWSECSATCGLGVRKREMKCSEKGFQGKLITFPERRCRNIKKPNLDLEETCNRRACPAHPVYNMVAGWYSLPWQQCTVTCGGGVQTRSVHCVQQGRPSSSCLLHQKPPVLRACNTNFCPAPEKREDPSCVDFFNWCHLVPQHGVCNHKFYGKQCCKSCTRKI

The target of assay [1] is T1, C-terminal truncated 35S-ADAMTS-18 …. Briefly: 35S-labelled protein on gel filtered platelets, overnight at 4 C. The protocol: FIGS. 14A-C show the effect of ADAMTS-18 on oxidative platelet fragmentation and binding to platelets. […] Gel-filtered platelets were treated with Biotin-peptide (bp) as well as bp+streptavidin (str) and scrambled Biotinylated ADAMTS-18 peptide (scp) to induce integrin clustering, n=6. Platelet fragmentation was assessed by FACS as described in the examples section. […] CT (control IgG), Ab (patient IgG). 18-mer biotin-peptide was incubated with an anti-Biotin Ab, 1:200 dilution (gray bars) or irrelevant IgG white bars, n=6. Oxidation was assessed. […] Ctl refers to ³⁵S ribosomal-translation of luciferase. AD-CTD refers to ³⁵S-ribosomal translation of ADAMTS-18 with absent C-terminal 157 amino acids (13% deleted). There is an absence of binding with C-terminal deficient ADAMTS-18. 18 mer refers to 10 μM non-radioactive 18 mer peptide added with the ³⁵S-ADAMTS-18 incubation. Binding with C-terminal 18 mer peptide is inhibited. The amino acid sequence for the 18-mer peptide is (SEQ ID NO: 8): […]

Assay [2] addresses B1. As to the kind of experiment: cell-based or functional assay.

B1: in assay [1], the binding result is reported as “no binding”. With B2, the “platelet fragmentation of TFLLRN-activated platelets against platelets without prestimulation” value in assay [2] was roughly 22 fold.
